Changes are numbered by the printed parent chain. Names and notes keep the numbering of the source.
T1: MinC-His6, wild-type Bacillus subtilis MinC (B. subtilis, UniProt Q01463 1-226)
T1 sequence (looked up): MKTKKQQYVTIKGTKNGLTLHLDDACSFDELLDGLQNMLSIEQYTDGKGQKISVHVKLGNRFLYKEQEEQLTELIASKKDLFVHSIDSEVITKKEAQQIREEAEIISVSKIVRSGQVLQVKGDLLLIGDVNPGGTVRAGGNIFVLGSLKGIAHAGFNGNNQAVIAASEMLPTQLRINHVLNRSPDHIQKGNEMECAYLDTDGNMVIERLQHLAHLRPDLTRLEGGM

B1: His6-FtsZ R376T (natural protein, B. subtilis, UniProt P17865 1-382, looked up)
chain: MLEFETNIDGLASIKVIGVGGGGNNAVNRMIENEVQGVEYIAVNTDAQALNLSKAEVKMQIGAKLTRGLGAGANPEVGKKAAEESKEQIEEALKGADMVFVTAGMGGGTGTGAAPVIAQIAKDLGALTVGVVTRPFTFEGRKRQLQAAGGISAMKEAVDTLIVIPNDRILEIVDKNTPMLEAFREADNVLRQGVQGISDLIATPGLINLDFADVKTIMSNKGSALMGIGIATGENRAAEAAKKAISSPLLEAAIDGAQGVLMNITGGTNLSLYEVQEAADIVASASDQDVNMIFGSVINENLKDEIVVTVIATGFIEQEKDVTKPQRPSLNQSIKTHNQSVPKREPKREEPQQQNTVSRHTSQPADDTLDIPTFLTNRNKRG
notes: FtsZ of Bacillus subtilis, mutant in the C-terminal peptide (CTP); source: E. coli BL21(DE3)-RIL, purified (two-step ammonium sulfate and GTP+Ca2+ precipitation); not shown: His6, N-terminal, kept
B2: His6-FtsZ, wild-type Bacillus subtilis FtsZ (natural protein, B. subtilis, UniProt P17865 1-382, looked up)
chain: B1 chain with T376R
notes: FtsZ of Bacillus subtilis, the ftsZ gene cloned into pET28a; also called WT; FtsZ^WT; source: E. coli BL21(DE3)-RIL, purified (two-step ammonium sulfate and GTP+Ca2+ precipitation); not shown: His6, N-terminal, kept
B3: His6-FtsZ K243R (natural protein, B. subtilis, UniProt P17865 1-382, looked up)
chain: B1 chain with K243R, T376R
notes: FtsZ of Bacillus subtilis, mutant from the error-prone PCR library; source: E. coli BL21(DE3)-RIL, purified (two-step ammonium sulfate and GTP+Ca2+ precipitation); not shown: His6, N-terminal, kept
B4: His6-FtsZ D287V (natural protein, B. subtilis, UniProt P17865 1-382, looked up)
chain: B1 chain with D287V, T376R
notes: as for B3
B5: His6-FtsZ T111A (natural protein, B. subtilis, UniProt P17865 1-382, looked up)
chain: B1 chain with T111A, T376R
notes: FtsZ of Bacillus subtilis, promiscuous mutant in the N-terminal subdomain; source: E. coli BL21(DE3)-RIL, purified (two-step ammonium sulfate and GTP+Ca2+ precipitation); not shown: His6, N-terminal, kept
B6: MinC Y44W (tryptophan mutant of Bacillus subtilis MinC) (natural protein, B. subtilis, UniProt Q01463 1-226, looked up)
chain: T1 sequence (looked up) with Y44W
notes: MinC of Bacillus subtilis with tryptophan at position 44 of the N-terminal domain; The methods name both His6-MinC (pET28a) and MinC-His6 (pET24b); also called tryptophan mutant MinC Y44W

Tests used:
[1] = molecular target: the molecule itself; assay: sedimentation of polymers; 7 µM FtsZ in Mes/NaOH 50 mM, MgCl2 10 mM, KCl 133 mM, DEAE-dextran 0.6 mg/mL, pH 6.5, GTP 2 mM, room temperature, 100.000 rpm 15 min; pellet and supernatant on SDS-PAGE
[2] = molecular target: T1, MinC-His6, wild-type Bacillus subtilis …; assay: cell-based or functional assay
[3] = molecular target: B2; assay: other fluorescence titration; intrinsic Trp fluorescence of 1 µM MinC Y44W with 0.5-3 µM FtsZ in solution; Tris/HCl 20 mM, KCl 100 mM, EDTA 5 mM, pH 7.5; excitation 295 nm, emission 320-360 nm; the interaction was inhibited by salt (1 M KCl); settings: both partners purified

light scattering signal of FtsZ polymerization with MinC (7 µM FtsZ, 20 µM MinC) relative to the signal in the absence of MinC [2] [%]	Kd [3] [nM]	Binder	binding result [1]
70		B1	binds
		B2	binds
		B3	binds
		B4	binds
		B5	binds
	~1000	B6	
